{
  "source": "patent US20160201045A1",
  "about": "“Endo-xylanase and Coding Gene and Use Thereof” (SHANGHAI INSTITUTES FOR BIOLOGICAL SCIENCES CHINESE ACADEMY …, priority 2013, published 2016)",
  "molecules": {"B1": {"name": "Xyl7: endo-1,4-β-xylanase of 505 amino acids, SEQ ID NO:2, from termite gut metagenome, expressed in E. coli with His tag (protein)", "chain": "MKKLIALSFIAAFFAPLFAQGPTWTTSTIQAYNGYDYELWNQNNAGTVSMKLTGDNGSGASAVGGTFTATWSNTQNVLFRSGKKWGSSSNQNHTQIGNMSINFAATWSSTDNVKMLGVYGWAYFTSANVPTKQENGTNASFSNQIEYYIIQDRGSYNPASGGTNAKKYGSATIDGIAYDFYVCDRINQPMLTGNGNFKQFFSVPQSASAHRTSGTISVSQHFNKWHELGMKMDGPLYEVAMKVESYTGSGSSNGSATVTKNLLTIGGTTPTPSSNSGGTTSSSSRASSSSRASSSSNAAVQATTCKTPLITYPTSTVPSDPYTACFKYTDDKCYVCKVENEGEFEGNMNTCGSGWVWDGTQIDNNLRDGYWYQEVPCPAGSSSSRSSSSSVAVSSSSRSSSSSVAASSSSRSSSSSASVSSSSEETPIRVLHTIPSKFRVRSLNNGALQIESNADVVLYLYDTKGKMAQKIEAPTGSSIVKLSVPAGIYIVRNVQTKEKLRVMVR", "modifications": "His tag; Intestinal tract metagenome of termite"}},
  "format_in_all_cases": "biochemical",
  "key": {"[1]": {"experiment": "Specific activity of the xylanase on beech xylan (DNS method)", "details": "pH7.0, 50° C., 10 minutes", "experimental": "(§1) Enzymatic activity of the endo-1,4-β-xylanase was tested by a DNS method as follows:\n(§2) 10 g NaOH were weighed and dissolved in about 400 ml ddH2O. 10 g dinitrosalicylic acid, 2 g phenol, 0.5 g anhydrous sodium sulfite and 200 g potassium sodium tartrate tetrahydrate were weighed and dissolved in about 300 ml ddH2O. The two solutions were mixed, diluted to 1 liter and preserved in dark.\n(§3) 100 μl DNS were added into each of the above standard samples. The mixtures were subjected to boiled water bath for 5 minutes for developing color. Absorbance value at 540 nm was detected by a microplate reader. Standard sample 1 was a blank control. The absorbance value of the blank control was subtracted from that of each sample and then the standard curve was plotted.\nIn a 100 μl reaction system, birch xylan was added to a final concentration of 1% (w/w), and Na2HPO4/NaH2PO4 buffer (pH7.0) was added to a final concentration of 100 mM. A suitable amount of enzyme solution diluted by the abovementioned buffer was added to the reaction system for reaction at 50[…] for 10 minutes. 100 μl DNS were added to stop the reaction. […] Absorbance value at 540 nm was detected by a microplate reader. After subtracting the absorbance value of the control from that of the sample, the enzymatic activity unit (U) was calculated based on the standard curve. […]"}, "[2]": {"experiment": "Standard enzymatic activity detection (DNS method) on birch xylan", "details": "substrate 2% (w/w), pH7.0, 50, 10 minutes", "experimental": "as §1, §2, §3\n(§4) In a 100 μl reaction system, birch xylan was added to a final concentration of 1% (w/w), and Na2HPO4/NaH2PO4 buffer (pH7.0) was added to a final concentration of 100 mM. A suitable amount of enzyme solution diluted by the abovementioned buffer was added to the reaction system for reaction at 50[…] for 10 minutes. 100 μl DNS were added to stop the reaction. For the control, 100 μl DNS were firstly added to the above reaction system before adding the enzyme solution. The reaction mixtures were subjected to a boiled water bath for 5 minutes to develop color. Absorbance value at 540 nm was detected by a microplate reader. After subtracting the absorbance value of the control from that of the sample, the enzymatic activity unit (U) was calculated based on the standard curve.\nDefinition of enzymatic activity unit (U): 1U refers to the amount of enzyme required for catalytically hydrolyzing xylan to produce 1 μmol xylose.\nDefinition of specific activity unit: enzymatic activity of 1 mg protein (U/mg).\nVarious substrates with a final concentration of 2% (w/w) were treated by a suitable amount of enzymes at pH7.0 and 50[…] for 10 minutes. Enzymatic activity was tested according to the above standard enzymatic activity detection steps. […] No detectable enzymatic activity was found for the other test substrates. […]"}, "[3]": {"experiment": "Detection of the optimum pH", "experimental": "as §4\nBuffers having different pH values in the range of 3.5-10 in a gradient of 0.5 unit were prepared, wherein NaAc with a final concentration of 100 mM was used to prepare the buffers having a pH in the range of 3.5-6.0, Na2HPO4/NaH2PO4 with a final concentration of 100 mM was used to prepare the buffers having a pH in the range of 6.0-8.0, and Tris-HCl with a final concentration of 100 mM was used to prepare the buffers having a pH in the range of 8.0-10.0. The enzyme solution was added into each pH buffer system and the enzymatic activity was tested according to the above standard enzymatic activity detection steps. […]"}, "[4]": {"experiment": "Detection on the optimum temperature", "experimental": "as §4\nEnzymatic activity was detected according the above standard enzymatic activity detection steps at pH 7.0 and a temperature in the range of 25-80° C. The optimum temperature of Xyl7 was in the range of 50-55° C., with an activity at 50[…] slightly higher than that at 55[…]. Thus, the specific activity value of the enzyme at 50[…] was used as a reference value and its relative activity was defined as 100%. The relative activity of the enzyme at each temperature was a ratio between the specific activity value of the enzyme at each temperature and the reference value."}, "[5]": {"experiment": "Detection on temperature tolerance", "experimental": "as §4\nThe Xyl7 enzyme solution was stored in a buffer having an optimum pH 7.0 at different temperatures (55° C., 50° C., 45° C.) or at 50° C. with addition of 70 mM mercaptoethan for different times (15 min, 30 min, 45 min, 60 min, 75 min). Enzymatic activity was tested according to the above standard enzymatic activity detection steps (enzymatic activity was tested after reacting at pH7.0, 50° C. for 10 minutes). The enzyme solution which was not subjected to heat treatment was used as a control. Its specific activity tested under pH 7.0, 50° C. was used as a reference value and its relative activity was defined as 100%. The relative activity of the treatment group was a ratio between the relative activity value obtained after storing at different temperatures for different times (treatment conditions) and the reference value. […] After storing at these temperatures for 45 min, the enzymatic activity decreased to be less than 50% of the maximum activity."}, "[6]": {"experiment": "TLC analysis on hydrolyzed products of birch xylan by Xyl7", "experimental": "1% (w/w) Birch xylan was treated by 15 U Xyl7 at pH7.0 and 50[…] for 10 min, 1 h, 4 h, and 12 h, respectively, to obtain the hydrolyzed products. […], each 5 μl, were subjected to TLC for identification. The standard samples were xylose, xylobiose, and xylotriose. The developing agent comprised ethyl acetate, acetic acid and water in a ratio of 2:1:1(V/V/V). The chromogenic agent was a solution of 1 mL aniline, 1 g diphenylamine and 5 mL 85% phosphoric acid dissolved in 50 mL acetone."}, "[7]": {"details": "pH 7.0, % of the maximum activity"}},
  "note": "Values joined by “and” are separate entries in the source; they are usually repeats but may differ in a detail not shown here. Equal values may be shown once.",
  "data": [
    {"molecule": "B1", "values": [
      {"measurement": "Specific Activity on beech xylan", "setting": "[1]", "value": "6340 U/mg and 6340 ± 48 U/mg"},
      {"measurement": "Specific Activity on beech xylan", "setting": "[1]; listed as xylanase of the present disclosure", "value": "higher than 6340 U/mg"},
      {"measurement": "Specific Activity on birch xylan", "setting": "[2]", "value": "4700 ± 57", "unit": "U/mg"},
      {"measurement": "optimum pH", "setting": "[3]; buffers pH 3.5-10, 50", "value": 7.0},
      {"measurement": "relative activity in the pH range of from 5.5 to 10", "setting": "[3]; relative to activity at pH7.0, 50", "value": "≥ 50", "unit": "%"},
      {"measurement": "optimum temperature", "setting": "[4]; pH 7.0, 25-80° C. tested", "value": "50-55 °C"},
      {"measurement": "retained activity in the range of 30-60° C.", "setting": "[4]; pH 7.0, % of the highest activity (50)", "value": "≥ 50", "unit": "%"},
      {"measurement": "effect of 70 mM mercaptoethan on loss of activity during storage", "setting": "[5]; pH 7.0, 50° C., 70 mM mercaptoethan added", "value": "decrease rate of the enzymatic activity was further reduced"},
      {"measurement": "activity after storing at 50° C. and 45° C. for 45 min", "setting": "[5]; [7]", "value": "less than 50%"},
      {"measurement": "activity after storing at 55° C. for 15 min", "setting": "[5]; [7]", "value": "less than 50%"},
      {"measurement": "hydrolyzed product of xylan, action time relatively short", "setting": "[6]; 10 minutes, pH7.0, 50", "value": "oligoxylan"},
      {"measurement": "hydrolyzed product of xylan, action time relatively long", "setting": "[6]; 12 hours, pH7.0, 50", "value": "xylo-oligosaccharide, mainly including xylobiose, xylotriose and xylotetraose"},
      {"measurement": "final hydrolyzed product if the enzyme was excessive", "setting": "[6]; excess enzyme", "value": "xylose"}
    ]}
  ]
}
